Measurements taken from FireProtDB (doi:10.1021/bi00010a017).

Conditions: Saccharomyces cerevisiae (strain ATCC 204508 / S288c), pH 4.6, Thermal, CD, Unknown, reversible: yes

Chain of Cytochrome c isoform 1 L100V, P00044 (P00044 whole entry L100V, canonical isoform): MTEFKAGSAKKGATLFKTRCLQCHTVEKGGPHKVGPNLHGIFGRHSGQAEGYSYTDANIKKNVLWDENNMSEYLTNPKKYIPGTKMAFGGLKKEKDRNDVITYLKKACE
Chain of Cytochrome c isoform 1 L100A, P00044 (P00044 whole entry L100A, canonical isoform): as the sequence (P00044 whole entry L100V, canonical isoform) above, with V100A counted along it
Chain of Cytochrome c isoform 1 F16W, P00044 (P00044 whole entry F16W, canonical isoform): as the sequence (P00044 whole entry L100V, canonical isoform) above, with F16W, V100L counted along it
Chain of Cytochrome c isoform 1 L100I, P00044 (P00044 whole entry L100I, canonical isoform): as the sequence (P00044 whole entry L100V, canonical isoform) above, with V100I counted along it
Chain of Cytochrome c isoform 1 L100T, P00044 (P00044 whole entry L100T, canonical isoform): as the sequence (P00044 whole entry L100V, canonical isoform) above, with V100T counted along it
Chain of Cytochrome c isoform 1 L100I|Y103F, P00044 L100I Y103F (P00044 whole entry L100I/Y103F, canonical isoform): as the sequence (P00044 whole entry L100V, canonical isoform) above, with V100I, Y103F counted along it
Chain of Cytochrome c isoform 1 Y103F, P00044 (P00044 whole entry Y103F, canonical isoform): as the sequence (P00044 whole entry L100V, canonical isoform) above, with V100L, Y103F counted along it
Chain of Cytochrome c isoform 1 wild type, P00044 (P00044 whole entry, canonical isoform): as the sequence (P00044 whole entry L100V, canonical isoform) above, with V100L counted along it
Chain of Cytochrome c isoform 1 Y103A, P00044 (P00044 whole entry Y103A, canonical isoform): as the sequence (P00044 whole entry L100V, canonical isoform) above, with V100L, Y103A counted along it
Chain of Cytochrome c isoform 1 F16Y, P00044 (P00044 whole entry F16Y, canonical isoform): as the sequence (P00044 whole entry L100V, canonical isoform) above, with F16Y, V100L counted along it
Chain of Cytochrome c isoform 1 F16I, P00044 (P00044 whole entry F16I, canonical isoform): as the sequence (P00044 whole entry L100V, canonical isoform) above, with F16I, V100L counted along it
Chain of Cytochrome c isoform 1 L100A|Y103F, P00044 L100A Y103F (P00044 whole entry L100A/Y103F, canonical isoform): as the sequence (P00044 whole entry L100V, canonical isoform) above, with V100A, Y103F counted along it

Substance	Tm (structure 1YCC) [°C]	change of melting temperature, mutant - wild type (higher = more stable) (structure 1YCC) [°C]	heat capacity change of unfolding (structure 1YCC) [kcal/mol/K]	unfolding enthalpy (van 't Hoff) (structure 1YCC) [kcal/mol]	heat capacity change of unfolding (52.8 °C, structure 1YCC) [kcal/mol/K]	unfolding free energy (52.8 °C, structure 1YCC) [kcal/mol]	heat capacity change of unfolding (52.8 °C) [kcal/mol/K]	unfolding free energy (52.8 °C) [kcal/mol]	Tm [°C]	heat capacity change of unfolding [kcal/mol/K]	unfolding enthalpy (van 't Hoff) [kcal/mol]
Cytochrome c isoform 1 L100A|Y103F, P00044 L100A Y103F	33.4	-19.4	1.78	53.7							
Cytochrome c isoform 1 L100I, P00044	54.1	1.3	1.81	87.2	1.81	0.33					
Cytochrome c isoform 1 wild type, P00044							1.37	0	52.8	1.37	82.5
Cytochrome c isoform 1 L100I|Y103F, P00044 L100I Y103F	49.9	-2.9	1.76	79.9							
Cytochrome c isoform 1 Y103A, P00044	31.1	-21.7	1.77	49.2							
Cytochrome c isoform 1 Y103F, P00044	53.8	1	1.53	84.5	1.53	0.24					
Cytochrome c isoform 1 F16I, P00044	48.5	-4.3	1.57	79.9							
Cytochrome c isoform 1 F16W, P00044	47.6	-5.2	1.6	75.6							
Cytochrome c isoform 1 L100A, P00044	36.6	-16.2	1.94	52.6							
Cytochrome c isoform 1 L100T, P00044	38.9	-13.9	1.49	57.8							
Cytochrome c isoform 1 F16Y, P00044	50.9	-1.9	1.26	75.5							
Cytochrome c isoform 1 L100V, P00044	48.8	-4	1.54	81.6							
